Source: patent US10786550B2, “Blockade of CCL18 signaling via CCR6 as a therapeutic option in treating interstitial lung disease” (UNIVERSITÄTSKLINIKUM FREIBURG, priority 2010, dated 2020)
Entries after “also recorded” stand apart in the source; their conditions may differ.

T1: CCR6 (Homo sapiens, UniProt P51684)
T1 sequence (P51684 1-374): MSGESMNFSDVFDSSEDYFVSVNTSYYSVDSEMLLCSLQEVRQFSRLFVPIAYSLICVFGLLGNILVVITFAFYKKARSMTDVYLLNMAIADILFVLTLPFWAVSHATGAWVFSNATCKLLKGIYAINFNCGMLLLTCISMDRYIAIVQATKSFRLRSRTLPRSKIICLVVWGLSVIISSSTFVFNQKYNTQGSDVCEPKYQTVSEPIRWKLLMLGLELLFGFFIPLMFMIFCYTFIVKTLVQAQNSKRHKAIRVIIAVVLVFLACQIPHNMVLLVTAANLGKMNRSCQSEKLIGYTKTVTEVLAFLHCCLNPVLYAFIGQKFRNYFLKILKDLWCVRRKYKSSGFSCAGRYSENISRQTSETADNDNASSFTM

B1: CCL18: human recombinant CCL18, chemokine ligand 18, ligand/agonist of CCR6 receptor (protein)
chain: AQVGTNKELCCLVYTSWQIPQKFIVDYSETSPQCPKPGVILLTKRGRQICADPNKKWVQKYISDLKLNA

Experiments:
[1] = system: soluble CCR6 (sCCR6); experiment: Blocking of free soluble CCR6 detection by ELISA; assay type: binding, human; conditions: ligand 100 ng/ml, 1 h
Protocol: Sera were diluted with an equal volume of PBS/BSA (1% bovine serum albumin, Sigma, Deisenhofen, Germany) either without any additives or containing CCL18 or CCL20 (both PeproTech, Hamburg, Germany; 100 ng/ml each). The diluted sera were then incubated for 1 h at 37° C. and subsequently measured by ELISA.
The sCCR6 ELISA described in Example 8 uses a monoclonal anti-CCR6 antibody as a capture antibody bound at the plate and a biotin-conjugated polyclonal anti-CCR6 antibody as a detection antibody. Most of the monoclonal anti CCR6 antibodies are directed against the N-terminal part of the receptor bearing the ligand binding site. In order to test whether the antibody recognition site of the sCCR6 molecule in sera from fibrotic patients might be covered with the ligand because of the high abundance of CCL18 in these sera, sera from healthy volunteers were incubated with 100 ng/ml of CCL18 or CCL20, respectively and sCCR6 was measured in blocked and unblocked sera by ELISA. Addition of these CCR6 ligands leads to a marked reduction of the sCCR6 signal (FIG. 20).

[2] = system: RLE-6TN; experiment: EMT of rat alveolar epithelial cell line RLE-6TN; assay type: cell-based; conditions: 6 days
Protocol: (§1) If not otherwise mentioned cells were stimulated with 10 ng/ml human recombinant CCL18, 2.5 ng/ml TGFβ with or without additional 1 ng/ml TNFα.
After the indicated culture period the cells were washed once in PBS and lysed in ice cold lysis buffer. Whole cell lysates were boiled at 93° C. for 5 minutes in equal volumes of loading buffer (0.5M Tris-HCl pH 6.8, 2% SDS, 0, 05% bromphenolblue, 20% 2-mercaptoethanol, 10% Glycerol).
All samples were subjected to 12% sodium dodecylsulfate-PAGE, separated by electrophoresis and transferred to a polyvinylidene difluoride membrane (PVDF). After blocking for 2 h in Tris-buffered saline (TBS) containing 5% non-fat dry milk, the membranes were incubated with primary antibody (rabbit-anti-collagen I (Rockland, Gilbertsville Pa.); anti αSMA (rabbit-anti-aSMA (Abcam, Cambridge, Mass.); anti vimentin (Santa Cruz); anti CCR6: CKR6/C20, Santa Cruz) diluted 1:700 with TBS at 4° C. overnight. Visualization was performed using appropriate secondary antibodies labeled with IRDye 800CW or IRDye 700CW (Li-COR Bioscience, Bad Homburg, Germany) diluted 1:10 000-1:20000 for 2 h and scanned using Odyssey system (Li-COR Biosience) according to the manufactures instructions.

[3] = system: RLE-6TN; experiment: EMT of rat alveolar epithelial cell line RLE-6TN; assay type: cell-based; conditions: for differentiation into fibroblast-like cells (EMT, morphology): culture period 6 days
[4] = target: T1, CCR6; experiment: αSMA induction in RLE-6TN transiently transfected with human CCR6; assay type: cell-based, rat; design: expressed in transfected cells; host or cells: RLE-6TN (rat alveolar epithelial cell line), transient transfection
Excerpt: In contrast, all stimulations induced the expression of CD90 (FIGS. 9B and C) although CD90 expression was more intense using CCL18. […] The cells were therefore transiently transfected with a commercially available plasmid containing a DNA sequence coding for human CCR6.

[5] = target: T1, CCR6; experiment: Inhibition of CCL18-induced CCR6 down-regulation on PBMNC/lymphocytes (FACS); assay type: cell-based; design: endogenous in cells; host or cells: freshly isolated human peripheral blood mononuclear cells; conditions: for CCL18 induced down-regulation of CCR6 expression in presence of inhibitor: CCL18 10 ng/ml + inhibitor 100 ng/ml, FACS
Protocol: Freshly isolated mononuclear cells were incubated for 20 minutes with 10 ng/ml of CCL18, 100 ng/ml of the inhibitor peptide PS-AU-105 (polypeptide according to SEQ ID NO.: 9), a combination of both or were left untreated. The incubation was performed in RPMI1640 with 10% fetal calf serum and 100 U/ml Streptomycin/Penicillin at 37° C. After the incubation, the cells were centrifugated and the supernatant was discarded. The cells were fixed with 4% paraformaldehyde for 5 minutes on ice and washed twice in PBS containing 1% FCS. After fixation the cells were stained using a fluorescein-conjugated antibody against CCR6 (R&D systems, Wiesbaden, FRG) and analyzed by flow cytometry (FACScalibur and Quantiquest; both Becton Dickinson, Franklin Lakes, USA).

[6] = system: human primary AECII; experiment: EMT of human primary alveolar epithelial cells type II; assay type: cell-based
Protocol: as §1
AECII were isolated as described previously (2). In brief, macroscopically tumor-free lung tissue was first sliced and slices were washed three times at 4° C. in phosphate-buffered saline (PBS) and then digested in sterile dispase solution (2.5 mg dispase II (Invitrogen GmbH, Karlsruhe, Germany) ml and 50 μg/ml DNase I (Roche Diagnostics, Mannheim, Germany)) at 37° C. for 60 minutes. After dispase digestion, the slices were thoroughly pipetted for several minutes using a 10 ml pipette with a wide inlet. Crude tissue and cell suspensions were filtered through nylon gauze with meshes of 50 and 20 μm. The cell suspension was then layered onto a density gradient solution (PAN Biotech GmbH, Aidenbach, Germany) and centrifuged at 800×g for 20 min.
The cells from interphase were washed and incubated in 100 mm Petri dishes (max. 6×10^7 cells/dish) in RPMI (Invitrogen, Karlsruhe, Germany) with 10% fetal calf serum (FCS) (PAA Laboratories GmbH, Colbe, Germany) and 1% penicillin/streptomycin (Biochrom AG, Berlin, Germany) at 37° C. in humidified incubator (5% CO2, 37° C.) for 15, 20 and if possible 30 minutes to remove adherent (mostly alveolar macrophages, monocytes and fibroblasts) from non-adherent cells. […]

[7] = system: A549; experiment: EMT induction by CCL18 in adenocarcinoma cell line A549; assay type: cell-based, human
Protocol: Cells of the adenocarcinoma cell line A549 were seeded in 6-well plates and allowed to adhere over night. After adherence the cells were stimulated with the indicated amount of CCL18. TGFβ was used as a positive control. […]

[8] = target: T1, CCR6; experiment: CCL18-induced FGF2 release by lung fibroblasts (FGF2 ELISA); assay type: cell-based; design: endogenous in cells; conditions: CCL18 10 ng/ml, 24 h
Protocol: To estimate CCL18-induced FGF2 release fibroblasts were harvested, counted and seeded 300.000 cells per well in a 6-well cell culture plate in Quantum 333. Cells were allowed to attach over night and the medium was replaced with 1 ml of DMEM plus 10% FCS. Cells were either left un-stimulated or were stimulated with 10 ng/ml of human recombinant CCL18. To block CCR6/CCL18 interaction a blocking antibody against CCR6 (R&D systems, Wiesbaden, FRG) or an irrelevant antibody (mouse anti human IgG, R&D Systems) was added to a final concentration of 20 μg/ml in parallel cultures. After 24 h of culture the supernatant was harvested and stored at −80° C. until FGF2 determination.

[9] = target: T1, CCR6; experiment: CCL18-induced collagen I and αSMA mRNA expression in human lung fibroblast lines (real-time PCR); assay type: cell-based; design: endogenous in cells; conditions: four human lung fibroblast cell lines
Protocol: as §1
After the indicated culture period total RNA was extracted using TRIzol Reagent according to the manufacturer's protocol (Invitrogen, Karlsruhe, Germany). Total RNA was reverse-transcribed with StrataScript RT (Stratagene, Santa Clara, Calif.) using oligo (dT)12-18 primer to produce cDNA according to the manufacturer's protocol. Specific primers for human CCR6, collagen type I, alpha-smooth muscle actin and GAPDH were designed using Primer3 software (Whitehead Institute for Biomedical Research, Cambridge, USA; http://frodo.wi.mit.edu/cgi-bin/primer3/primer3_www.cgi), Amplify1.2 software (University of Wisconsin, USA; http://engels.genetics.wisc.edu/amplify) using LocusLink and GenBank databases (National Center for Biotechnology Information; http://www.ncbi.nlm.nih.gov/LocusLink/index.html). Accession code numbers for the nucleotide sequences used to generate the respective primers and the primer sequences are depicted in FIG. 17.
All primers were intron-spanning and synthesized by MWG-Biotech (MWG-Biotech AG, Germany). […] A threshold cycle value (Ct) was calculated and used to compute the relative level of specific mRNA by the following formula: “relative expression=2^(Ct GAPDH-Ct CCL18)×10,000” for each cDNA sample.

[10] = sera with low and medium sCCR6 concentrations
[11] = serum with high sCCR6 concentration

Molecule	sCCR6 detection by ELISA after ligand addition [1, 10]	reduction of sCCR6 ELISA signal [1, 11]	sCCR6 detection by ELISA after ligand addition [1, 11]	vimentin expression (Western Blot) [2]	αSMA expression (Western Blot) [2]	differentiation into fibroblast-like cells (EMT, morphology) [3]	αSMA expression (fluorescence microscopy) ([3]; day 6)	αSMA expression in CCR6 transfected versus mock transfected cells [4]	also measured
CCL20: Chemokine ligand 20, CCR6 ligand (PeproTech) [reference compound]	nearly abolishes CCR6 detection; also recorded: totally blocked	14%	reduced by one third	–	–	–	–	–	–
TGFβ: cytokine stimulus used as positive control for EMT [reference compound]	–	–	–	failed to induce the expression of vimentin	strong expression of αSMA	undergoes epithelial-mesenchymal transition (EMT); also recorded: more pronounced	induces αSMA expression	induced αSMA expression in both cell types; also recorded: induce αSMA expression in both cell lines	–
PS-AU-105: inhibitor peptide, polypeptide according to SEQ ID NO.: 9, binds to and inhibits CCR6 receptor (EDCCLVYTSWQIHPKFIVDYSETSPQCPK; peptide inhibitor of CCR6)	–	–	–	–	–	–	–	–	CCL18 induced down-regulation of CCR6 expression in presence of inhibitor ([5]; 20 minutes): diminished; also recorded: fails to down-regulate the CCR6+ sub-population; CCL18 induced down-regulation of CCR6 expression in presence of inhibitor ([5]; 20 minutes, listed as PS-AU-1015): this down-regulation does not occur; effect of inhibitor only on CCR6 expression ([5]; inhibitor 100 ng/ml without CCL18, 20 minutes): no effect
B1	nearly abolishes CCR6 detection; also recorded: totally blocked	36%	reduced by one third	expression of vimentin	Only a faint expression of αSMA	undergoes epithelial-mesenchymal transition (EMT); also recorded: induces a differentiation into spindle-shaped, fibroblast-like cells	did not	induced αSMA in CCR6 transfected cells, but not in mock transfected cells; also recorded: found in CCR6 transfected RLE-6TN but not in mock-transfected cells	αSMA and vimentin expression (Western blot) ([6]; 12 days): strongly up-regulates both molecules; induction of EMT ([6]; CCL18 with or without TNFα): induces EMT; FSP1 mRNA expression (qPCR) ([7]; 72 h): marked and dose dependent up-regulation; also recorded: up-regulation of FSP1 expression; snail expression (western blot) ([7]; 72 h): induces dose-dependently the expression; also recorded: induces snail expression; E-cadherin expression (qPCR) ([7]; b569: after 24 h, b77: after 72 h): substantially down-regulated; also recorded: down-regulation of E-cadherin expression; CD90 expression (immuno-fluorescence) ([3]; day 6): more intense; FGF2 release on CCL18 stimulation ([8]; fibroblasts from fibrotic lungs): significant up-regulation; also recorded: further up-regulated; FGF2 release on CCL18 stimulation ([8]; fibroblasts from non-fibrotic lungs): only marginal; also recorded: only marginally; collagen I mRNA expression induced [9]: three out of four; also recorded: up-regulates collagen I expression in three of four cell lines; CCR6 surface expression after incubation with CCL18 ([5]; CCL18 10 ng/ml, 20 minutes): decrease in the percentage of CCR6^+ cells; also recorded: marked down-regulation; also recorded: diminishes the peak markedly
